In patent US20240309115A1 (MERUS N V, published 2024):

What was measured:
[1] = target: T1, LAG-3 on PD-1 and LAG-3 expressing Jurkat T cells (effector cells of the PD-1/LAG-3 reporter assay) (UniProt P18627 23-525); test: cell-based or functional assay
T1 sequence (looked up): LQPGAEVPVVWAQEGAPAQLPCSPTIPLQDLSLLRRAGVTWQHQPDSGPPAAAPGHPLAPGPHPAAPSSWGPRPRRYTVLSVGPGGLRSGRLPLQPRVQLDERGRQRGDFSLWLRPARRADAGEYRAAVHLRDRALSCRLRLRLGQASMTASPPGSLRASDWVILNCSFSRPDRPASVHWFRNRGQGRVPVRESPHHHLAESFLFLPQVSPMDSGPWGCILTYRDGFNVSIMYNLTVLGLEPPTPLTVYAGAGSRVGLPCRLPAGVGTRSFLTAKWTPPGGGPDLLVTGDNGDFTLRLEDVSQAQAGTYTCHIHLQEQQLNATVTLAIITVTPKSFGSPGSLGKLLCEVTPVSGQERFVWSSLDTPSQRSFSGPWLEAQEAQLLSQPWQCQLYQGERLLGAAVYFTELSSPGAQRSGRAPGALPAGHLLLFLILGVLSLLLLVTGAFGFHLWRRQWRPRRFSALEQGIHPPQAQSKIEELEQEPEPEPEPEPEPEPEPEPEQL

[2] = target: T2, PD-L1 on PD-L1 expressing Raji cells (target cells of the PD-1/LAG-3 reporter assay) (UniProt Q9NZQ7 19-290, limits assumed); test: cell-based or functional assay
T2 sequence (Q9NZQ7 19-290 limits assumed): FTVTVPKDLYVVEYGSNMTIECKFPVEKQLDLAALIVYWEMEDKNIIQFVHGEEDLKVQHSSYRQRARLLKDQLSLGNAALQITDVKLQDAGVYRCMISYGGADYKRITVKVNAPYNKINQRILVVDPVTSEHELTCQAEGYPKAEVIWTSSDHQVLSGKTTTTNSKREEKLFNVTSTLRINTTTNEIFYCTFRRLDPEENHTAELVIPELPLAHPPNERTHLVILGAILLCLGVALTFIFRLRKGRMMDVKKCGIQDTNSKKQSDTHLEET

[3] = target: T3, human LAG-3 (293FF cell line stably transfected with human LAG-3) (human, UniProt P18627 23-525); test: FACS on 293FF cells expressing human LAG-3
T3 construct: whole, on cells; also called huLAG-3; 293FF-huLAG-3
T3 sequence (looked up): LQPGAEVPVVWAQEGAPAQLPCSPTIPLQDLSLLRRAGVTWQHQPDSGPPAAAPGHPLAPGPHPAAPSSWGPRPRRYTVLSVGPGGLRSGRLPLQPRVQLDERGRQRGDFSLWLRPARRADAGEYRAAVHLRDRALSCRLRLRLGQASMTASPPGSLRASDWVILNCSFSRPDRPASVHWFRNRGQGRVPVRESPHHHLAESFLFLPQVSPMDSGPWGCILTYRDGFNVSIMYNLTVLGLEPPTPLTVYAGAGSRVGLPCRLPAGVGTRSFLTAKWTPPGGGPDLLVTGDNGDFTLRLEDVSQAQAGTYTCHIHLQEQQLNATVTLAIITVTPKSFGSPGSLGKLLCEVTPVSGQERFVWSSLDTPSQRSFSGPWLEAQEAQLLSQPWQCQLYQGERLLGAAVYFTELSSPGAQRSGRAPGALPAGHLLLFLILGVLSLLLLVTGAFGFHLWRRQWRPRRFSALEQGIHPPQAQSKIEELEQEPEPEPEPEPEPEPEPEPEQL

[4] = target: T4, human PD-L1 (CHO-K1 cell line stably transfected with human PD-L1) (human, UniProt Q9NZQ7 19-290); test: FACS on CHO-K1 cells expressing human PD-L1
T4 construct: whole, on cells; also called huPD-L1; CHO-K1-huPD-L1
T4 sequence (Q9NZQ7 19-290): as the sequence (Q9NZQ7 19-290 limits assumed) above

[5] = target: T1, LAG-3 on PD-1 and LAG-3 expressing …; test: cell-based or functional assay; remark: listed apart in the source
[6] = target: T2, PD-L1 on PD-L1 expressing Raji cells …; test: cell-based or functional assay; remark: listed apart in the source
[7] = target: T3, human LAG-3 (293FF cell line stably …); test: FACS on 293FF-huLAG-3 cells
[8] = target: T5, rhesus LAG-3 (293FF cell line stably transfected with rhesus LAG-3) (rhesus, UniProt A0A5F8A874 23-533); test: FACS on 293FF-reLAG-3 cells
T5 construct: whole, on cells; also called reLAG-3; 293FF-reLAG-3
T5 sequence: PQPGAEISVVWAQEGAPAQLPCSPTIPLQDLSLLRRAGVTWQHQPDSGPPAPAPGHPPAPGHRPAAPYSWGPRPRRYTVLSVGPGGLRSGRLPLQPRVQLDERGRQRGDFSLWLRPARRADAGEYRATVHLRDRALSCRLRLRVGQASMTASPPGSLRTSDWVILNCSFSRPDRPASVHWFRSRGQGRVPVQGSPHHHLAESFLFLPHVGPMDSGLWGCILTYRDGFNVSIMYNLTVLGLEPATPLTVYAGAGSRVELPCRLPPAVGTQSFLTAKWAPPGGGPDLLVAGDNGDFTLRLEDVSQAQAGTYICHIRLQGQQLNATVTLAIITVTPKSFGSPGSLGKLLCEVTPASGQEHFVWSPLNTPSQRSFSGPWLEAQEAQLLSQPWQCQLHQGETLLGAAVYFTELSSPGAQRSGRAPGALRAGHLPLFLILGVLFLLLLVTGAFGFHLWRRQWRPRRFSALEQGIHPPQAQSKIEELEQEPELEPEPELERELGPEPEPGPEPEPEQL

[9] = target: T4, human PD-L1 (CHO-K1 cell line stably …); test: FACS on CHO-K1-huPD-L1 cells
[10] = target: T5, rhesus LAG-3 (293FF cell line stably …); test: FACS on 293FF cells stably expressing rhesus LAG-3, goat-anti-human PE secondary, MFI
[11] = target: T6, cynomolgus monkey LAG-3-His (Sino Biological, Cat nr. 90841-C08H) (cynomolgus monkey); test: SPR, BIAcore T200, antibody captured by anti-huIgG Fcγ on a CM5 chip, antigen in solution, 1:1 model
T6 construct: also called cynomolgus LAG-3

[12] = target: T7, rhesus PD-L1 (CHO-K1 cell line stably transfected with rhesus PD-L1) (rhesus, UniProt F6VEW6 19-290); test: FACS on CHO-K1 cells stably expressing rhesus PD-L1, goat-anti-human PE secondary, MFI
T7 construct: whole, on cells

Binder	AUC compared to control, PD-1/LAG-3 reporter assay (luciferase) [1]	AUC compared to control, PD-1/LAG-3 reporter assay (luciferase) [2]	EC50 [3] [nM]	EC50 [4] [nM]	other results
SEQ ID NO: 16×SEQ ID NO: 23 bispecific antibody (bispecific antibody, Fc-silenced IgG1, monovalent for LAG-3 and for PD-L1; also called PB63; not shown: IgG1 hinge) heavy (part 1 of 2) 1: QVQLVQSGAEVKKPGASVKVSCKASGYTFTSYGISWVRQAPGQGLEWMGWISAYSGNTNYAQKLQGRVTMTTDTSTSTAYMELRSLRSDDTAVYYCARGSILAAQMWGDIWGQGTLVTVSSASTKGPSVFPLAPSSKSTSGGTAALGCLVKDYFPEPVTVSWNSGALTSGVHTFPAVLQSSGLYSLSSVVTVPSSSLGTQTYICNVNHKPSNTKVDKRV heavy (part 2 of 2) 1: not shown heavy (part 1 of 2) 2: not shown heavy (part 2 of 2) 2: not shown light: not shown	58.3 relative to AUC of positive control	58.3 relative to AUC of positive control	24.1	1.01	–
bivalent monospecific parental LAG-3 antibody SEQ ID NO: 16 (antibody, IgG1, IgG1; not shown: IgG1 hinge) heavy (part 1 of 2): QVQLVQSGAEVKKPGASVKVSCKASGYTFTSYGISWVRQAPGQGLEWMGWISAYSGNTNYAQKLQGRVTMTTDTSTSTAYMELRSLRSDDTAVYYCARGSILAAQMWGDIWGQGTLVTVSSASTKGPSVFPLAPSSKSTSGGTAALGCLVKDYFPEPVTVSWNSGALTSGVHTFPAVLQSSGLYSLSSVVTVPSSSLGTQTYICNVNHKPSNTKVDKRV heavy (part 2 of 2): not shown light: not shown	–	–	13.3	–	–
SEQ ID NO: 5×SEQ ID NO: 23 bispecific antibody (bispecific antibody, Fc-silenced IgG1, monovalent for LAG-3 and for PD-L1; also called PB19; not shown: IgG1 hinge) heavy (part 1 of 2) 1: QVQLQESGPGLVKPSETLSLTCTVSDDSISDYYWSWIRQPPGKGLEWIGYIYYSGNTKYNPSLKNRVTISVDTSKSQFSLKLTSVTAADTAVYYCARIPLTGEFDYWAQGTLVTVSSASTKGPSVFPLAPSSKSTSGGTAALGCLVKDYFPEPVTVSWNSGALTSGVHTFPAVLQSSGLYSLSSVVTVPSSSLGTQTYICNVNHKPSNTKVDKRV heavy (part 2 of 2) 1: not shown heavy (part 1 of 2) 2: not shown heavy (part 2 of 2) 2: not shown light: not shown	83.9 relative to AUC of positive control	83.9 relative to AUC of positive control	8.64	1.21	–
bivalent monospecific parental LAG-3 antibody SEQ ID NO: 5 (antibody, IgG1, IgG1; not shown: IgG1 hinge) heavy (part 1 of 2): QVQLQESGPGLVKPSETLSLTCTVSDDSISDYYWSWIRQPPGKGLEWIGYIYYSGNTKYNPSLKNRVTISVDTSKSQFSLKLTSVTAADTAVYYCARIPLTGEFDYWAQGTLVTVSSASTKGPSVFPLAPSSKSTSGGTAALGCLVKDYFPEPVTVSWNSGALTSGVHTFPAVLQSSGLYSLSSVVTVPSSSLGTQTYICNVNHKPSNTKVDKRV heavy (part 2 of 2): not shown light: not shown	–	–	1.88	–	–
SEQ ID NO: 52×SEQ ID NO: 20 bispecific antibody (bispecific antibody, IgG1; also called PB90; not shown: IgG1 hinge) heavy (part 1 of 2) 1: QVQLQESGPGLVKPSETLSLTCTVSDDSISDYYWSWIRQPPGKGLEWIGYIYYSGNTKYNPSLKNRVTISVDTSKSQFSLKLTSVTAADTAVYYCARIPLTGDFDFWAQGTLVTVSSASTKGPSVFPLAPSSKSTSGGTAALGCLVKDYFPEPVTVSWNSGALTSGVHTFPAVLQSSGLYSLSSVVTVPSSSLGTQTYICNVNHKPSNTKVDKRV heavy (part 2 of 2) 1: not shown heavy (part 1 of 2) 2: not shown heavy (part 2 of 2) 2: not shown light: not shown	–	–	–	–	AUC (% of control), PD-1/LAG-3 reporter assay [5]: 96.9 % of control; EC50, PD-1/LAG-3 reporter assay [5]: 1.15 µg/mL; AUC (% of control), PD-1/LAG-3 reporter assay [6]: 96.9 % of control; EC50, PD-1/LAG-3 reporter assay [6]: 1.15 µg/mL; EC50 [7]: 1.25 µg/mL; EC50 [8]: 3.22 µg/mL; EC50 [9]: 0.009 µg/mL
SEQ ID NO: 15×SEQ ID NO: 23 bispecific antibody (bispecific antibody, Fc-silenced IgG1, monovalent for LAG-3 and for PD-L1; also called PB59; not shown: IgG1 hinge) heavy (part 1 of 2) 1: QVQLVQSGAEVKKPGASVKVSCKASGYTFTSYGISWVRQAPGQGLEWMGWISAYSGNTNYAQKLQGRVTMTTDTSTSTAYMELRSLRSDDTAVYYCARDGSGWDDFDYWGQGTLVTVSSASTKGPSVFPLAPSSKSTSGGTAALGCLVKDYFPEPVTVSWNSGALTSGVHTFPAVLQSSGLYSLSSVVTVPSSSLGTQTYICNVNHKPSNTKVDKRV heavy (part 2 of 2) 1: not shown heavy (part 1 of 2) 2: not shown heavy (part 2 of 2) 2: not shown light: not shown	71 relative to AUC of positive control	71 relative to AUC of positive control	113	2.41	–
bivalent monospecific parental LAG-3 antibody SEQ ID NO: 15 (antibody, IgG1, IgG1; not shown: IgG1 hinge) heavy (part 1 of 2): QVQLVQSGAEVKKPGASVKVSCKASGYTFTSYGISWVRQAPGQGLEWMGWISAYSGNTNYAQKLQGRVTMTTDTSTSTAYMELRSLRSDDTAVYYCARDGSGWDDFDYWGQGTLVTVSSASTKGPSVFPLAPSSKSTSGGTAALGCLVKDYFPEPVTVSWNSGALTSGVHTFPAVLQSSGLYSLSSVVTVPSSSLGTQTYICNVNHKPSNTKVDKRV heavy (part 2 of 2): not shown light: not shown	–	–	0.94	–	EC50 (read off the curve) [10]: ~0.6 µg/mL
relatlimab analog (antibody, V domains shown, also called analog of anti-LAG-3 antibody relatlimab) VH: QVQLQQWGAGLLKPSETLSLTCAVYGGSFSDYYWNWIRQPPGKGLEWIGEINHRGSTNSNPSLKSRVTLSLDTSKNQFSLKLRSVTAADTAVYYCAFGYSDYEYNWFDPWGQGTLVTVSS VL: EIVLTQSPATLSLSPGERATLSCRASQSISSYLAWYQQKPGQAPRLLIYDASNRATGIPARFSGSGSGTDFTLTISSLEPEDFAVYYCQQRSNWPLTFGQGTNLEIK	–	–	–	–	Kd [11]: 11.5 nM
SEQ ID NO: 1×SEQ ID NO: 23 bispecific antibody (bispecific antibody, Fc-silenced IgG1, monovalent for LAG-3 and for PD-L1; also called PB3; not shown: IgG1 hinge) heavy (part 1 of 2) 1: QVQLQESGPGLVRPSETLSLTCTVSGGSISSYSWSWIRQPPGKGLEWIGYIDYSGSTNYNPSLKSRVTISVDTSKTQFSLKLSSVSAADTAVYYCAKDLLYKWNYVEGFDIWGQGTTVTVSSASTKGPSVFPLAPSSKSTSGGTAALGCLVKDYFPEPVTVSWNSGALTSGVHTFPAVLQSSGLYSLSSVVTVPSSSLGTQTYICNVNHKPSNTKVDKRV heavy (part 2 of 2) 1: not shown heavy (part 1 of 2) 2: not shown heavy (part 2 of 2) 2: not shown light: not shown	54.8 relative to AUC of positive control	54.8 relative to AUC of positive control	52.1	0.74	EC50 (read off the curve) [12]: ~0.05 µg/mL
bivalent monospecific parental LAG-3 antibody SEQ ID NO: 1 (antibody, IgG1, IgG1; not shown: IgG1 hinge) heavy (part 1 of 2): QVQLQESGPGLVRPSETLSLTCTVSGGSISSYSWSWIRQPPGKGLEWIGYIDYSGSTNYNPSLKSRVTISVDTSKTQFSLKLSSVSAADTAVYYCAKDLLYKWNYVEGFDIWGQGTTVTVSSASTKGPSVFPLAPSSKSTSGGTAALGCLVKDYFPEPVTVSWNSGALTSGVHTFPAVLQSSGLYSLSSVVTVPSSSLGTQTYICNVNHKPSNTKVDKRV heavy (part 2 of 2): not shown light: not shown	–	–	0.54	–	–
